Molecular target: Recombinant human cartilage oligomeric matrix protein (COMP) (human) (UniProt P49747)
Assay: atomic force microscopy

Recombinant human cartilage oligomeric matrix protein (COMP), P49747 21-757 (natural protein; other documents disagree on this pair), sequence (P49747 21-757): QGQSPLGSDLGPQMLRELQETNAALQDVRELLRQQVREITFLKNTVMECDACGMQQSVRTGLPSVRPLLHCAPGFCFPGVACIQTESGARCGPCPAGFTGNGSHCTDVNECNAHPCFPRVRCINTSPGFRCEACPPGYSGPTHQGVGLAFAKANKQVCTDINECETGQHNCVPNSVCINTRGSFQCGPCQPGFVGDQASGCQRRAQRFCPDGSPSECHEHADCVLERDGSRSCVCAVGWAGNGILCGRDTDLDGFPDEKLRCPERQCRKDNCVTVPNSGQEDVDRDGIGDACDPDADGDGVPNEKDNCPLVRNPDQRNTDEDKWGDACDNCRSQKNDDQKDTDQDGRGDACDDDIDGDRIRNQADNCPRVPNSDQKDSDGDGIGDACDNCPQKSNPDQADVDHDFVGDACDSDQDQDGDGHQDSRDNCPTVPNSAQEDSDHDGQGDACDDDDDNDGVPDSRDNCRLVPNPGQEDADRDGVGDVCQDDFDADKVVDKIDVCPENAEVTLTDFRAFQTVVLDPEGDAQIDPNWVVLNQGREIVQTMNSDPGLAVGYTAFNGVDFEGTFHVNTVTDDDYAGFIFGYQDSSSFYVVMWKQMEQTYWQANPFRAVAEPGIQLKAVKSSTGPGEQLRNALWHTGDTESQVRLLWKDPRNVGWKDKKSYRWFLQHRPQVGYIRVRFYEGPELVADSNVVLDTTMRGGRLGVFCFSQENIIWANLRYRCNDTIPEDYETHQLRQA

Recombinant human cartilage oligomeric matrix protein (COMP), P49747 21-757 (natural protein; other documents disagree on this pair)
stoichiometry N: 5

From publication PMC7891936
